The record followed here is patent US20080292662A1.

This experiment addresses Rhodanese (Sigma), denatured in 8 M urea (UniProt P00586). The experiment in a line: cell-based or functional assay.
Chain of UniProt P00586 (P00586 2-297 limits assumed): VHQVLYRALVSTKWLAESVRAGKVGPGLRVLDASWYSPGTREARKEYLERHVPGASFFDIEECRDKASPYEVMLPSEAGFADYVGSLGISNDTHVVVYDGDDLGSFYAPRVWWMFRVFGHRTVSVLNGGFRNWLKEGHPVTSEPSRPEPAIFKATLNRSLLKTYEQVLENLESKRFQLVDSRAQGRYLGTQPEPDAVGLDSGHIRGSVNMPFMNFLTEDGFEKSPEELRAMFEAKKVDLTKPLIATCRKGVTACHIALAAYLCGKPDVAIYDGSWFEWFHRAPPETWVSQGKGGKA

For the substance “Histidine-tagged ClpL of Streptococcus pneumoniae (from pKHY004, expressed in E. coli)”, the Rhodanese activity (%) after refolding with ClpL 90 Nm worked out at 9%.
